In assay [1] the test system is PC12 cells. In words: EMSA with 32P-labeled transcription factor binding site oligonucleotides, PC12 nuclear extracts. Type of assay: cell-based, rat. The settings on record: treated vs untreated PC12 cells. The protocol:
Confirmation of the increase in the transcription factor AP-1 binding activity was performed by electrophoretic mobility shift assay (EMSA). Nuclear extracts obtained from PC cells either treated with NGF-beta or untreated were combined in separate binding reactions. Each reaction also contained a ^32P-labeled oligonucleotide comprising a binding site for a specific transcription factor. […] In contrast, when the oligonucleotide was specific for the OCT1 binding site (lanes 7 and 8), no increase in gel-shifted material was observed.

Assay [2] deals with PC12 cells. In words: Global regulatory element activity profiling with PC12 nuclear extracts. Type of assay: cell-based, rat. The settings on record: treated vs untreated PC12 cells, FIG. 3. The protocol:
Rat pheochromocytoma (PC) cells (cell line PC12; ATCC Number CRL-1721) were grown in high glucose Dulbecco's Modified Eagle Medium (DMEM) in the presence of 10% horse serum, and then transferred to serum-free DMEM plus N2 supplement (Invitrogen) containing 200 ng/ml Nerve Growth Factor-beta (NGF-beta; Sigma). After a 5 hour exposure, the cells were removed from the dishes, washed with PBS, and collected by centrifugation for regulatory element activity profiling.
Global regulatory element activity profiling was carried out using nuclear extracts from cells that were either untreated or treated with NGF-beta. Known transcription factor binding sites present in the DNA sequences were counted as described for Jurkat cells. Bars indicate the percentage of DNA fragments containing selected cis sites that were isolated in binding reactions containing nuclear extracts from either untreated (white bars) or NGFbeta-treated (black bars) PC12 cells. It can be seen that NGF treatment led to an increase in binding activity for AP 1, ATF and TCF11 (among others), while other activities, for example, E2F and RFX1, were reduced after NGF treatment.

B1: Nerve Growth Factor-beta (protein, UniProt P01139 122-241, looked up)
Beta-nerve growth factor: SSTHPVFHMGEFSVCDSVSVWVGDKTTATDIKGKEVTVLAEVNINNSVFRQYFFETKCRASNPVESGCRGIDSKHWNSYCTTTHTFVKALTTDEKQAAWRFIRIDTACVCVLSRKATRRG
modifications: Beta-nerve growth factor
notes: Nerve Growth Factor-beta (Sigma) used to treat PC12 cells
Take B1: in the assay on PC12 cells [1] (FIG. 4 lanes 3 and 4), the “AP-1 binding site gel-shifted material (DNA-protein complexes)” value is on record as “significant increase”. The “OCT1 binding site gel-shifted material” value in the assay on PC12 cells [1] (FIG. 4 lanes 7 and 8) is “no increase”. Further, in the assay on PC12 cells [2], the “AP 1 binding activity” value was “increase”, the ATF binding activity entry is listed as “increase”, the E2F binding activity entry was “reduced” and the RFX1 binding activity result is reported as “reduced”. In addition, the TCF11 binding activity entry in the assay with PC12 cells [2] is given as “increase”.
